Legend:
CEACAM5 on cells [1] = target: T1, CEACAM5 on cells (UniProt P06731 35-685); experiment: cell-based or functional assay
T1 sequence (looked up): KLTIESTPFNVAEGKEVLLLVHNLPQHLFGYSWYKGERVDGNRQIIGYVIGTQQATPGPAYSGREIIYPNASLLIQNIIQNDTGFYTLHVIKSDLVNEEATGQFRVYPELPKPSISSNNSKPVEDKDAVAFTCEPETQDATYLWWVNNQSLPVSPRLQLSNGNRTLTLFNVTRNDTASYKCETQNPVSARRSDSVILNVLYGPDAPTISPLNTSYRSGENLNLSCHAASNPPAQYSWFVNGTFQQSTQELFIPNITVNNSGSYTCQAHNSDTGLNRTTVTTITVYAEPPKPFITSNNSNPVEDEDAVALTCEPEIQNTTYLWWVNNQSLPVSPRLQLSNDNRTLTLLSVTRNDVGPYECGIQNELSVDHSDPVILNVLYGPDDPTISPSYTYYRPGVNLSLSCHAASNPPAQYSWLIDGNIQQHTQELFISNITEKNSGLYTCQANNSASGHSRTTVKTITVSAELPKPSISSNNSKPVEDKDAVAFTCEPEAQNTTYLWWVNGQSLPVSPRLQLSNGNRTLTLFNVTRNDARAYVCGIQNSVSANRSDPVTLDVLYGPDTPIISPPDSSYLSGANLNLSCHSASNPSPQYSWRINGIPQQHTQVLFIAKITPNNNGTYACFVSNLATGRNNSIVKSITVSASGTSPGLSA

CEACAM5 on cells [2] = target: T1, CEACAM5 on cells; experiment: cell-based or functional assay; remark: listed apart in the source
CEACAM5 on cells [3] = target: T1, CEACAM5 on cells; experiment: flow cytometry, LS174T cells; set-up: Top: unit not given here
CEACAM5 on cells [4] = target: T1, CEACAM5 on cells; experiment: flow cytometry, LoVo cells; set-up: Top: unit not given here
EGFR on cells [5] = target: T2, EGFR on cells (UniProt P00533 25-1210, limits assumed); experiment: flow cytometry on HER14 cells, MeanFI (PE)
T2 construct: whole, on cells; also called HER14 cells (NIH3T3 transfected with EGFR); EGFR on LS174T and LoVo cells

EGFR on cells [6] = target: T2, EGFR on cells; experiment: cell-based or functional assay
EGFR on cells [7] = target: T2, EGFR on cells; experiment: cell-based or functional assay; remark: listed apart in the source
EGFR on cells [8] = target: T2, EGFR on cells; experiment: flow cytometry, LS174T cells; set-up: Top: unit not given here
EGFR on cells [9] = target: T2, EGFR on cells; experiment: flow cytometry, HER14 cells
EGFR on cells [10] = target: T2, EGFR on cells; experiment: flow cytometry, LoVo cells; set-up: Top: unit not given here
[11] = target: T3, human CD3 expressed on HEK293H cells (human, UniProt P04234 22-171; P09693 23-182; P07766 23-207; P20963 22-164); experiment: flow cytometry on HEK293H human CD3 cells, MCF
T3 construct: also called HEK293H human CD3; HEK293H CD3
Experimental: (§1) Binding of purified monovalent anti-TCR Nanobodies to human TCR(2IAN)/CD3 expressed on HEK293H cells was evaluated and compared with the binding to HEK293H cells transfected with human CD3 in flow cytometry, as outlined in Example 5. Dilution series of anti-TCR Nanobodies starting from 1 μM were applied to the cells. The parental HEK293H cell line was included as TCR/CD3 negative cell line.

[12] = target: T3, human CD3 expressed on HEK293H cells; experiment: flow cytometry, HEK293H human CD3 cells
Experimental: as §1
Nanobodies clearly bound to human TCR(2IAN)/CD3 expressed on HEK293H but not to the HEK293H cells transfected with human CD3 only, nor to the HEK293H parental cell line. The EC50 values obtained from the dose response curve are depicted in Table C-2.

[13] = target: T4, T cell receptor alpha/beta on purified primary human T cells (human, UniProt P01848 1-140; P01850 1-176); experiment: flow cytometry, purified primary human T cells
T4 construct: whole, on cells; also called human primary T cells
T4 TCR alpha (looked up): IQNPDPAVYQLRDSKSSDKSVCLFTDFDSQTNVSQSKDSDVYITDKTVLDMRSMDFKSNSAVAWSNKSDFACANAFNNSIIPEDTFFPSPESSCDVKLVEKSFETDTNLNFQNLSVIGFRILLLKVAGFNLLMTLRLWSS
T4 TCR beta (looked up): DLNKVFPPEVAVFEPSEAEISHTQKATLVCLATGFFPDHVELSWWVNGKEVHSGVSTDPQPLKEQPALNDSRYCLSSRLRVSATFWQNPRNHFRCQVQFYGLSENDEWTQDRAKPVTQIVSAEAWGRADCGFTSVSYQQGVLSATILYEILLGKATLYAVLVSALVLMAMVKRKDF
Experimental: Periplasmic extracts were screened for cell expressed TCR/CD3 binding using human TCR/CD3 transfected CHO-K1 or HEK293H cells and the respective CHO-K1 or HEK293H reference cell line in a mixed cell line setup. To this end, a large batch of the reference cell lines were labelled with 8 μM PKH26 and frozen. 5×10⁴ PKH labelled reference cells were mixed with 5×10⁴ target cells and incubated with periplasmic extracts for 30 min at 4′C, and washed 3 times. […] Samples were washed, resuspended in FACS Buffer (D-PBS from Gibco, with 10% FBS from Sigma and 0.05% sodium azide from Merck) and then analysed via a BD FACSArray. […] In this gate, 20,000 cells were counted during acquisition. Based on PKH26-SSC distribution, the PKH labelled parental population and the human TCR/CD3 unlabelled target population was selected. For these 2 populations the mean APC value was calculated.
Binding of purified monovalent anti-TCR Nanobodies to human TCR(2XN9)/CD3 expressed on CHO-K1 cells and to purified primary human T cells was evaluated in flow cytometry as outlined in Example 4.1.

[14] = target: T5, soluble recombinant cynomolgus TCR alpha/beta-zipper protein (cynomolgus/rhesus monkey); experiment: ELISA, coated soluble cynomolgus TCR-zipper
T5 construct: Made in house in CHOK1SV cells; extracellular domains fused to a zipper protein; also called cynoTCR-zipper protein; not shown: zipper protein (O'Shea et al. 1993)
T5 V domain 1: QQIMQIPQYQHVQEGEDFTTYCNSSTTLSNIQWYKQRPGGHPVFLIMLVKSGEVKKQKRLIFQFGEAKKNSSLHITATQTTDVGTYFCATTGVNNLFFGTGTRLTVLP
T5 V domain 2: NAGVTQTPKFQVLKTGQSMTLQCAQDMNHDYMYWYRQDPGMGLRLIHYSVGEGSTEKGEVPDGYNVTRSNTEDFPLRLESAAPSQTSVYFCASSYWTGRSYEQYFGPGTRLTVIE
Experimental: Quality of the TCR α/β zipper proteins was assessed in an ELISA binding assay. Maxisorp 96-well ELISA plates (Nunc) were coated with 2 μg/mL soluble recombinant human TCR α/β (2XN9)-zipper protein or soluble recombinant cynomolgus TCR α/β-zipper protein. After an overnight incubation, plates were washed and blocked with PBS+1% casein for 1 h at room temperature. Next, plates were incubated with serial dilutions of either a functional flag tagged Nanobody or the functional mouse IgG anti-non-human primate/Rat TCRα/β antibody, clone R73 (eBioscience 16-5960) for 1 h at room temperature while shaking, washed again and incubated with mouse anti-flag-HRP (Sigma, #A8592) respectively rabbit anti-mouse-HRP (Dako, # P0260). After 1 h, TMB One Solution (Promega #G7431) was added. The reaction was stopped with 2M H₂SO₄ and the dose dependent binding was determined by measuring the OD at 450 nm using the Tecan sunrise 4 (FIG. 2).
Binding of purified monovalent anti-TCR Nanobodies to soluble recombinant cynomolgus TCR c/3 protein was evaluated in ELISA (as described in Example 1.2) using 2 μg/ml directly coated recombinant soluble cynomolgus TCR-α/β zipper protein.

T3 sequence (P04234 22-171 limits assumed, chain 1 of 4): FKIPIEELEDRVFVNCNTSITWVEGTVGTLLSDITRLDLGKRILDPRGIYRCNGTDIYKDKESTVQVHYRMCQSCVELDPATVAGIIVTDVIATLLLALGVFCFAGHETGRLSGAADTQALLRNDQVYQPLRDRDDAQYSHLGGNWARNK
T3 sequence (P09693 23-182 limits assumed, chain 2 of 4): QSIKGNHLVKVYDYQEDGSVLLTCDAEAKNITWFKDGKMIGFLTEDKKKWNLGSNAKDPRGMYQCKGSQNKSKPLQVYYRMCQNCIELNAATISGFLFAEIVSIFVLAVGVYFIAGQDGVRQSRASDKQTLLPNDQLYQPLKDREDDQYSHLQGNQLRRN
T3 sequence (P07766 23-207 limits assumed, chain 3 of 4): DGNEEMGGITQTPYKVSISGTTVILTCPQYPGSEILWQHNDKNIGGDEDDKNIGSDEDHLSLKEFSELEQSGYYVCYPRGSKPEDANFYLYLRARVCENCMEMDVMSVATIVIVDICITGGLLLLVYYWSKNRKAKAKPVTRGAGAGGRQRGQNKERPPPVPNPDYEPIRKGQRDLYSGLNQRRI
T3 sequence (P20963 22-164 limits assumed, chain 4 of 4): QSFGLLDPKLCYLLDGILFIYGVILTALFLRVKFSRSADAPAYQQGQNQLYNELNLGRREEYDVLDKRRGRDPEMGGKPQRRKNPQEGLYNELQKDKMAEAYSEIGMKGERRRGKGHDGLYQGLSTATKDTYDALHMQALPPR

B1: T017000109 (other)
chain: EVQLVESGGGSVQAGGSLRLSCAASGYTIGPYCMGWFRQAPGKEREGVAAINMGGGITYYADSVKGRFTISQDNAKNTVYLLMNSLEPEDTAIYYCAADSTIYASYYECGHGLSTGGYGYDSWGQGTLVTVSSGGGGSGGGGSGGGGSGGGGSGGGGSGGGGSGGGGSEVQLVESGGGSVQAGGSLRLSCAASGDTYGSYWMGWFRQAPGKEREGVAAINRGGGYTVYADSVKGRFTISRDTAKNTVYLQMNSLRPDDTADYYCAASGVLGGLHEDWFNYWGQGTLVTVSSGGGGSGGGGSGGGGSGGGGSGGGGSGGGGSGGGGSEVQLVESGGGLVQPGGSLRLSCVASGDVHKINFLGWYRQAPGKEREKVAHISIGDQTDYADSAKGRFTISRDESKNMVYLQMNSLKPEDTAVYFCRAFSRIYPYDYWGQGTLVTVSSGAADYKDHDGDYKDHDIDYKDDDDKGAAHHHHHH
notes: Irrelevant (anti-egg lysozyme) x CEACAM5 x TCR Nanobody construct; entry includes the FLAG3-HIS6 tag; also called cAbLys3(D1E,Q5V,A6E,Q108L)-35GS-NbCEA5-35GS-T0170056G05-FLAG3-HIS6
Q: With B1 as the binder, how does the “IC50, xCELLigence human T cell mediated killing of LS174T cells, E:T 15, 50-60 h” value (CEACAM5 on cells [1]) read?
A: The value was 36 nM.

Q: And the “IC50, xCELLigence human T cell mediated killing of LoVo cells, E:T 15, 50-60 h” value (CEACAM5 on cells [1])?
A: The value was 2 nM.

Q: And the “IC50, xCELLigence human T cell mediated killing of LS174T cells, E:T 15, 30-40 h” value (CEACAM5 on cells [2])?
A: Its value is 100 nM.

Q: And the “IC50, xCELLigence human T cell mediated killing of LoVo cells, E:T 15, 30-40 h” value (CEACAM5 on cells [2])?
A: Its value is 9.3 nM.

Q: And the EC50 (CEACAM5 on cells [3])?
A: The EC50 was 25 nM.

Q: And the Top (CEACAM5 on cells [3])?
A: Its Top is 51000.

Q: And the EC50 (CEACAM5 on cells [4])?
A: Its EC50 is 36 nM.

Q: What about the Top (CEACAM5 on cells [4]) of the same binder?
A: The Top was 18500.

Q: Does B1 bind (EGFR on cells [5])?
A: Result: no binding (tested: 5e-7 M)

B2: T017000110 (other)
chain: EVQLVESGGGLVQAGGSLRLSCAASGRTFSSYVMGWFRQATGKEREFVATIAWDSGSTYYADSVKGRFTISRDNAKNTVHLQMNSLKPEDTAVYYCAASYNVYYNNYYYPISRDEYDYWGQGTLVTVSSGGGGSGGGGSGGGGSGGGGSGGGGSGGGGSGGGGSEVQLVESGGGSVQAGGSLRLSCAASGYTIGPYCMGWFRQAPGKEREGVAAINMGGGITYYADSVKGRFTISQDNAKNTVYLLMNSLEPEDTAIYYCAADSTIYASYYECGHGLSTGGYGYDSWGQGTLVTVSSGGGGSGGGGSGGGGSGGGGSGGGGSGGGGSGGGGSEVQLVESGGGLVQPGGSLRLSCVASGDVHKINFLGWYRQAPGKEREKVAHISIGDQTDYADSAKGRFTISRDESKNMVYLQMNSLKPEDTAVYFCRAFSRIYPYDYWGQGTLVTVSSGAADYKDHDGDYKDHDIDYKDDDDKGAAHHHHHH
notes: EGFR x irrelevant (anti-egg lysozyme) x TCR Nanobody construct; entry includes the FLAG3-HIS6 tag; also called EGFR038G07-35GS-cAbLys3(D1E,Q5V,A6E,Q108L)-35GS-T0170056G05-FLAG3-HIS6
Q: B2 was tested. Which “IC50, xCELLigence human T cell mediated killing of HER14 cells, E:T 15, 50-60 h” value (EGFR on cells [6]) did it give?
A: The value was 0.42 nM.

Q: What about the “IC50, xCELLigence human T cell mediated killing of LS174T cells, E:T 15, 50-60 h” value (EGFR on cells [6]) of the same binder?
A: Its value is 8.9 nM.

Q: What about the “IC50, xCELLigence human T cell mediated killing of LoVo cells, E:T 15, 50-60 h” value (EGFR on cells [6]) of the same binder?
A: Its value is 0.6 nM.

Q: What about the “IC50, xCELLigence human T cell mediated killing of LS174T cells, E:T 15, 30-40 h” value (EGFR on cells [7]) of the same binder?
A: Its value is 26 nM.

Q: And the “IC50, xCELLigence human T cell mediated killing of LoVo cells, E:T 15, 30-40 h” value (EGFR on cells [7])?
A: Its value is 1.5 nM.

Q: What about the EC50 (EGFR on cells [8]) of the same binder?
A: Its EC50 is 6.3 nM.

Q: What about the Top (EGFR on cells [8]) of the same binder?
A: The Top was 40800.

Q: And the EC50 (EGFR on cells [9])?
A: The EC50 was 7.3 nM.

Q: And the Top (EGFR on cells [9])?
A: The Top was 165000.

Q: And the EC50 (EGFR on cells [10])?
A: Its EC50 is 2.4 nM.

Q: What about the Top (EGFR on cells [10]) of the same binder?
A: Its Top is 95900.

B3: T0170068G05 (VHH)
VHH: VQLVEESGGGLVQPGGSLRLSCITSGETFKINIWGWYRQAPGKQRELVASLTIGGATNYADSVKGRFTISEDSAKNTVYLQMNSLKPEDTAVYFCNAKSRIYPYDYWGRGTQVTVSS
notes: Monovalent anti-TCR Nanobody, cluster B; expressed in E. coli as triple Flag, His6-tagged protein; also called T0170PMP068G05; not shown: C-terminal triple Flag-His6 tag of the E. coli-made monovalent Nanobody
Q: Does B3 bind [11]?
A: Result: no binding (tested: 1e-6 M)

Q: And the “MCF at 1 µM” value [12]?
A: The value was 240 MCF.

Q: And the EC50 [13]?
A: The EC50 was > 100 nM.

Q: And the EC50 [14]?
A: Its EC50 is 87 nM.
